In paper PMC10593741:

Assays:
[1] = molecular target: H3-H4 tetramer of S. cerevisiae (on DNA: H3-H4 tetrasome) (S. cerevisiae) (UniProt P61830); assay: single-molecule photobleaching step counting, fit of a probability model; H2A^AF488 foci, chromatinized ARS1 origin, after 30 min bulk incubation in buffer only
[2] = molecular target: H3-H4 tetramer of S. cerevisiae (on DNA: H3-H4 tetrasome) (S. cerevisiae) (UniProt P61830); assay: single-molecule photobleaching step counting, fit of a probability model; H2A^AF488 foci, chromatinized ARS1 origin, after 30 min bulk incubation with ORC^JF646 and Cdc6
[3] = molecular target: H3-H4 tetramer of S. cerevisiae (on DNA: H3-H4 tetrasome) (S. cerevisiae) (UniProt P61830); assay: single-molecule photobleaching step counting, fit of a probability model; H2A^AF488 foci, chromatinized mutated origin, after 30 min bulk incubation with ORC^JF646 and Cdc6
[4] = molecular target: H3-H4 tetramer of S. cerevisiae (on DNA: H3-H4 tetrasome) (S. cerevisiae) (UniProt P61830); assay: single-molecule photobleaching step counting, fit of a probability model; H2A^AF488 foci, chromatinized ARS1 origin, after 30 min bulk incubation with ORC, Cdc6 and MCM^JF646/Cdt1
[5] = molecular target: H3-H4 tetramer of S. cerevisiae (on DNA: H3-H4 tetrasome) (S. cerevisiae) (UniProt P61830); assay: single-molecule photobleaching step counting, fit of a probability model; H2A^AF488 foci, chromatinized mutated origin, after 30 min bulk incubation with ORC, Cdc6 and MCM^JF646/Cdt1
[6] = molecular target: H3-H4 tetramer of S. cerevisiae (on DNA: H3-H4 tetrasome) (S. cerevisiae) (UniProt P61830); assay: single-molecule photobleaching step counting, fit of a probability model; H2A^AF488 foci at the chromatinized ARS1 origin, imaged immediately after introduction into the flow cell; p_label fixed at 0.81
[7] = test system: ORC-JF646 (Origin Recognition Complex, HaloTag-JF646 on N-terminus of Orc3) (Saccharomyces cerevisiae); assay: single-molecule fluorescence with optical tweezers; conditions: Bulk loading: 25 mM HEPES-KOH pH 7.6, 10 mM MgOAc, 100 mM KOAc, 0.02% NP40, 5% glycerol, 1 mM DTT, 5 mM ATP or ATPgS, 30 C, single-molecule buffer not …; for binding signal (% of foci in origin bin): 5 nM ORC, 5 s rapid binding, 30 min; for binding signal (% of DNA molecules with ORC): Cdc6, ATP, 30 min stable binding
[8] = test system: Histone octamer H2A(K120C)-AF488/H2B/H3/H4 (Saccharomyces cerevisiae); assay: single-molecule fluorescence of reconstituted nucleosomes; conditions: 100 mM KOAc, 0.02% NP40, 5% glycerol, 1 mM DTT, 5 mM ATP or ATPgS, 30 C, single-molecule buffer not …

For “H2A^AF488-H2B dimer (S. cerevisiae H2A K120C labelled with AF488, with H2B) (from UniProt P04911 2-132; P02293 5-131) (complex)”, the ph2a (probability of H2A-H2B dimer association with the H3-H4 tetrasome) [1] was 0.73, the ph2a (probability of H2A-H2B dimer association with the H3-H4 tetrasome) [2] was 0.81 and the ph2a (probability of H2A-H2B dimer association with the H3-H4 tetrasome) [3] was 0.6. For the same substance, the ph2a (probability of H2A-H2B dimer association with the H3-H4 tetrasome) [4] was 0.84, the ph2a (probability of H2A-H2B dimer association with the H3-H4 tetrasome) [5] was 0.91 and the ph2a (probability of H2A-H2B dimer association with the H3-H4 tetrasome) [6] was 0.77.

“10.4 kbp DNA, ARS1 origin, chromatinized (two nucleosomes)” gave a binding signal (% of foci in origin bin) ([7]; nucleosomes) of 39 and a binding signal (% of DNA molecules with ORC) ([7]; nucleosomes, 51% of foci in origin bin) of 41.

Work on 10.4 kbp DNA, ARS1 origin, bare yielded a binding signal (% of foci in origin bin) [7] of 30, a binding signal (% of DNA molecules with ORC) ([7]; 61% of foci in origin bin) of 79 and a binding signal (% of H2A foci in origin bin) ([8]; after 30 min with ORC-JF646 and Cdc6, Bulk loading: 25 mM HEPES-KOH pH 7.6, 10 mM MgOAc) of 49. The binding signal (% of H2A foci in origin bin) ([8]; salt-gradient dialysis, after 30 min in buffer, chromatinized form is N2, Bulk loading: 25 mM HEPES-KOH pH 7.6, 10 mM MgOAc) was 80.
